In the supplement of paper PMC10598134:
± gives the standard deviation.

Assay: collision cross section of unmodified peptide (TIMS, N2, iRT-aligned); higher = larger / more extended gas-phase ion
In short: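 Synthetic peptide pools (~100 fmol/µL in 2% acetonitrile/0.1% formic acid, iRT standard spiked 1:40) were separated on a 120-min nanoflow C18 gradient at 60 °C. They were analysed on a timsTOF Pro/HT (dda-PASEF, nitrogen, ~2.4 mbar) and identified with MaxQuant. 1/K0 was calibrated with three reference ions and aligned run-wise to the median iRT peptide deviation. Collision cross section came from the Mason-Schamp equation, averaging 1–3 technical replicates of the most abundant feature per charge state.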

Row | Substance | collision cross section (charge state: 2) [Å²] | collision cross section (charge state: 3) [Å²]
1 | RLPTTGYLVYR | 389.8 ± 0.35 | 475.19 ± 2.9
2 | SPASDTYIVFGEAK | 403.4 ± 0.16 | 478.14 ± 0.9
3 | TTEETSKPK | 341.31 ± 0.82 | 430.05 ± 3.7
4 | DLTTAGAVTQCYR | 396.98 ± 0.16 | 489.14
5 | HHTLRQAPQPQSSLQR |  | 502.65 ± 0.69
6 | SGYSSPGSPGTPGSR | 379.95 ± 0.14 | 
7 | ESISVSSEQLAQFR | 416.66 ± 2.8 | 
8 | IQTKAGEATVK | 361.35 ± 0.94 | 457.37 ± 4.1
9 | ISSNFSSIIAEKLR | 430.92 ± 3.1 | 511.25 ± 4.9
10 | AQVLAGGRGK | 345.66 ± 0.88 | 
11 | DYGNSPLHR | 339.65 ± 0.48 | 430.38 ± 2
12 | GDKGDAGEPGR | 331.44 ± 0.79 | 419.58 ± 2
13 | TSAYGPPTR | 322.86 ± 1.6 | 
14 | YEQEHAAIQDKLFQVAK |  | 555.79 ± 2.3
15 | RGATPPAPPRR |  | 465.11 ± 2.3
16 | VPTTEKPTVTVNFR | 427.25 ± 2.6 | 517.02 ± 4.3
17 | TTLTSDESVKDHTTAGR |  | 528.1 ± 0.21
18 | VGTASVLQPVKK | 400.02 ± 0.9 | 461.91 ± 3
19 | LDEKENLSAK | 363.87 ± 1.4 | 445.27 ± 6.6
20 | VIVGGSSEYK | 346.7 ± 0.59 | 
21 | VEPIHAVVLPRGK | 414.74 ± 1.1 | 483.53 ± 1.8
22 | GFALVGVGSEASSKK | 433.33 ± 1.5 | 506.74 ± 2.3

Row | Substance | collision cross section (charge state: 2) [Å²] | collision cross section (charge state: 3) [Å²]
23 | TGPPGSTGSR | 307.73 ± 0.78 | 
24 | CSVLAAANPVYGR | 385.24 ± 0.16 | 
25 | GEKGDPGLIGPK | 373.44 ± 1.5 | 449.05 ± 1.4
26 | MTLSVLSR | 327.34 ± 0.14 | 
27 | GPPGAKGNK | 312.31 ± 1.7 | 
28 | GEPGQGLRGLQGPPGK | 417.18 ± 1.2 | 443.35 ± 0.85
29 | SPDEAYAIAKK | 371.22 ± 1.1 | 435.25 ± 4.4
30 | GERGVPGER | 324.16 ± 0.79 | 410.66 ± 1.3
31 | GERGPPGPPGR | 331 ± 1.5 | 441.17 ± 1.4
32 | YSSNLGNFNYEQRGAFR |  | 529.47 ± 0.012
33 | GEIGPPGPR | 309.77 ± 3.8 | 
34 | VNVEAPDVNLEGLGGKLK | 454.51 ± 2.9 | 537.97 ± 2.9
35 | GEKGLPGLAGDHGEFGEK |  | 564.38 ± 1.3
36 | LSSETYSQAK | 348.96 ± 1.1 | 
37 | GFCFITYTDEEPVKK | 461.17 ± 2.5 | 509.46 ± 2.1
38 | GGPGAPGAPGPK | 323.76 ± 0.58 | 
39 | VETTVTSLKTK | 379.41 ± 0.92 | 459.8 ± 3.1
40 | LLALSGPGGGRGR | 381.45 ± 1.3 | 451.48 ± 1.9
41 | LGVATVAKGVCGACK | 433.92 ± 2.8 | 487.58 ± 4.2
42 | LYDIDVAK | 334.71 ± 0.73 | 
43 | GGPGSTLSFVGKR | 395.98 ± 0.53 | 456.87 ± 1.5
44 | PGNSGIR | 278.56 ± 0.86 | 

Row | Substance | collision cross section (charge state: 2) [Å²] | collision cross section (charge state: 3) [Å²]
45 | DVNAAIAAIKTK | 391.89 ± 2.3 | 461.97 ± 1.6
46 | AVPSSPAGSAARGR | 380.85 ± 0.71 | 489.36 ± 2
47 | VSFLSALEEYTK | 392.46 ± 0.78 | 
48 | LLRGVGGSHGR | 358.18 ± 0.097 | 450.84 ± 3.9
49 | VDGDTQTTVEK | 367.05 ± 2.3 | 
50 | IINEPTAAAIAYGLDKK | 487.73 ± 3.8 | 556.28 ± 2.3
51 | YLHDESGLNR | 361.42 ± 0.55 | 447.46 ± 1.1
52 | STLEEPNLQPLQR | 408.53 ± 0.66 | 
53 | SISQSISGQK | 337.94 ± 0.14 | 
54 | YILIPASQQPK | 375.08 ± 0.48 | 
55 | SLGEPAAGEGSAKR | 397.19 ± 1.1 | 478.87 ± 5.9
56 | GRGVGSPEPGPTAPYLGRR |  | 516.55
57 | GRGGAESHTFK | 353.4 ± 0.58 | 440.9 ± 5.6
58 | ATVASSTQKFQDLGVK | 459.73 ± 1.9 | 485.98 ± 5
59 | GFGRGGAESHTFK | 384.5 ± 0.2 | 473.03 ± 1.3
60 | TSAVSSQANSQPPVQVSVK | 457.25 ± 1.5 | 542.62 ± 0.28
61 | AQPSASLGVGYR | 364.53 ± 0.14 | 
62 | ASEALLKQLK | 367.26 ± 1.1 | 459.21 ± 3.1
63 | ASNAAVKLAESK | 381.6 ± 0.7 | 452.24 ± 3.2
64 | LTEKELAEAASK | 387.7 ± 1 | 479.05 ± 4.3
65 | ETTPSSLAVTQTMATK | 434.06 ± 0.13 | 
66 | SPPLPEHQKIPCNSAEPK |  | 527.39 ± 1.3

Row | Substance | collision cross section (charge state: 2) [Å²] | collision cross section (charge state: 3) [Å²]
67 | GRGLPGPAESLR | 364.16 ± 0.25 | 446.18 ± 17
68 | IHPEGPPLK | 335.79 ± 0.58 | 438.33 ± 2
69 | FSHSVQNSERGK | 402.29 ± 0.72 | 464.33 ± 2.2
70 | SAGSVESPSVSSTHR | 394.4 ± 0.14 | 493.72 ± 0.22
71 | IFDSEEILAGYK | 391.02 ± 0.47 | 
72 | PGLKGEQGEPGAPGIR | 410.66 ± 1.2 | 510.99 ± 0.86
73 | FGYVDFESAEDLEK | 428.91 ± 0.24 | 
74 | PLRAASPFR | 352.16 ± 0.084 | 447.55 ± 5.2
75 | FGVEAFSDCLR | 384.72 ± 0.67 | 
76 | DVFISAAER | 340.13 ± 0.68 | 
77 | SKHLQEQLNELK | 411.35 ± 1.6 | 481.15 ± 4.4
78 | TGGTQTDLFTCGKCK | 431.32 ± 1.2 | 479.49 ± 5.3
79 | GGGDRGGFGPGK | 338.46 ± 2.1 | 414.71 ± 5.6
80 | GYGVIFANGNR | 361.55 ± 0.6 | 
81 | PAVTAAPK | 290.54 ± 0.15 | 
82 | IGAEVYHHLK | 371.39 ± 0.54 | 435.97 ± 1.1
83 | FIHQQPQSSSPVYGSSAK |  | 514.9 ± 0.21
84 | DHLSDKESK | 345.48 ± 0.71 | 415 ± 3.9
85 | GEQGEPGAPGIR | 347.53 ± 0.79 | 
86 | GLQGPPGK | 292.79 ± 0.8 | 
87 | ISPVEESEDVSNK | 399.42 ± 0.14 | 
88 | FHYQDQEFLK | 406.29 ± 0.68 | 457.95 ± 1.7

Row | Substance | collision cross section (charge state: 2) [Å²] | collision cross section (charge state: 3) [Å²]
89 | GYDVIAQAQSGTGK | 388.46 ± 0.16 | 
90 | TLHLSHLNRFPAR |  | 511.92 ± 1.2
91 | LGVPGLPGYPGRQGPK | 416.71 ± 0.59 | 493.33 ± 24
92 | GPQNATDSYVHK | 381.43 ± 1.1 | 445.36 ± 1.8
93 | ITESVAETAQTIK | 394.65 ± 0.14 | 
94 | SSFAYKDQNENR | 418.44 ± 1.2 | 454.53 ± 4.1
95 | ANAIGRGAK | 319.32 ± 2.5 | 
96 | FTEYETQVK | 363.82 ± 1.3 | 
97 | TLQKQSVVYGGK | 390.15 ± 1.7 | 444.64 ± 5
98 | SKLLFSNTAAQK | 393.75 ± 6 | 444.64 ± 5
99 | LQEKVESAQSEQK | 416.22 ± 2.1 | 487.5 ± 6.9
100 | VPGVGLPGVYPGGVLPGAR | 445.04 ± 0.9 | 532.89 ± 0.34
101 | DFAFYNPRLQGK | 408.01 ± 1.3 | 473.2 ± 2.9
102 | YIDNQVVSTKGER | 414.64 ± 0.66 | 500.48 ± 1
103 | GGNFGGRGGYGGGGGGSR | 404.35 ± 1.4 | 464.41 ± 2.6
104 | SGRGGNFGFGDSR | 375.82 ± 0.59 | 452.15 ± 2.9
105 | QGNAVTLGDYYQGR | 415.78 ± 0.66 | 
106 | GDRGEIGPPGPR | 366.43 ± 0.3 | 425.03 ± 1.2
107 | PGPVGPPGSGGLK | 353.19 ± 0.41 | 
108 | PGPRGQR | 296.23 ± 0.53 | 
109 | YSTSGSSGLTTGK | 373.3 ± 0.54 | 
